B1: HESX1 (parent)
chain: HVPNPPSGISFPSVVDHPMPEERA

Variants of: B1
Experiment: protein stability index of a GFP-peptide fusion (GPS, HEK-293T) (PSI 1-6); higher = more stable
Settings: c terminus: a fixed tail appended
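Also: lentivirally expressed fusions sorted by FACS into six bins by GFP to DsRed ratio, PSI derived from sequencing read proportions per bin multiplied by bin number.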

Variant	protein stability index
HVPNPPSGLSFPSVVDHPMPEERA	2.14
HVPNPPSGRSFPSVVDHPMPEERA	2.67
HVPNPPSGSSFPSVVDHPMPEERA	3.33
HVPNPPSGTSFPSVVDHPMPEERA	3.8
HVPNPPSGWSFPSVVDHPMPEERA	2.37
HVPNPPSGNSFPSVVDHPMPEERA	3.31
HVPNPPSGQSFPSVVDHPMPEERA	3.62
HVPNPPSGHSFPSVVDHPMPEERA	3.24
HVPNPPSGVSFPSVVDHPMPEERA	2.94
HVPNPPSGPSFPSVVDHPMPEERA	2.23
HVPNPPSGMSFPSVVDHPMPEERA	2.5
HVPNPPSGYSFPSVVDHPMPEERA	2.43
HVPNPPSGKSFPSVVDHPMPEERA	3.53
HVPNPPSGISMPSVVDHPMPEERA	4.88
HVPNPPSGISAPSVVDHPMPEERA	5
HVPNPPSGISLPSVVDHPMPEERA	4.93
HVPNPPSGISTPSVVDHPMPEERA	4.8
HVPNPPSGISSPSVVDHPMPEERA	4.86
HVPNPPSGISWPSVVDHPMPEERA	2.54
HVPNPPSGISGPSVVDHPMPEERA	4.65
HVPNPPSGISQPSVVDHPMPEERA	4.83
HVPNPPSGISPPSVVDHPMPEERA	5.21
HVPNPPSGISEPSVVDHPMPEERA	5.4
HVPNPPSGISRPSVVDHPMPEERA	4.37

Variant	protein stability index
HVPNPPSGISKPSVVDHPMPEERA	5.12
HVPNPPSGISHPSVVDHPMPEERA	4.48
HVPNPPSGISNPSVVDHPMPEERA	4.54
HVPNPPSGISDPSVVDHPMPEERA	5.23
HVPNPPSGISVPSVVDHPMPEERA	4.42
HVPNPPSGISYPSVVDHPMPEERA	4.22
HVPNPPSGISIPSVVDHPMPEERA	4.39
HVPNPPSGISCPSVVDHPMPEERA	4.39
HVPNPPSGIYFPSVVDHPMPEERA	2.18
HVPNPPSGIHFPSVVDHPMPEERA	2.81
HVPNPPSGIIFPSVVDHPMPEERA	2.59
HVPNPPSGIVFPSVVDHPMPEERA	2.58
HVPNPPSGIFFPSVVDHPMPEERA	2.61
HVPNPPSGINFPSVVDHPMPEERA	3.5
HVPNPPSGIPFPSVVDHPMPEERA	2.29
HVPNPPSGIRFPSVVDHPMPEERA	2.03
HVPNPPSGIMFPSVVDHPMPEERA	2.56
HVPNPPSGIDFPSVVDHPMPEERA	3.77
HVPNPPSGICFPSVVDHPMPEERA	2.19
HVPNPPSGIKFPSVVDHPMPEERA	2.38
HVPNPPSGITFPSVVDHPMPEERA	2.97
HVPNPPSGIQFPSVVDHPMPEERA	2.42
HVPNPPSGIEFPSVVDHPMPEERA	3.39
HVPNPPSGIWFPSVVDHPMPEERA	1.97

Variant	protein stability index
HVPNPPSGIGFPSVVDHPMPEERA	2.25
HVPNPPSGIAFPSVVDHPMPEERA	2.79
HVPNPPSGILFPSVVDHPMPEERA	2.38
HVPNPPSGISFDSVVDHPMPEERA	4.85
HVPNPPSGISFWSVVDHPMPEERA	3.85
HVPNPPSGISFSSVVDHPMPEERA	4.01
HVPNPPSGISFKSVVDHPMPEERA	3.83
HVPNPPSGISFISVVDHPMPEERA	2.43
HVPNPPSGISFLSVVDHPMPEERA	2.79
HVPNPPSGISFGSVVDHPMPEERA	3.82
HVPNPPSGISFQSVVDHPMPEERA	3.92
HVPNPPSGISFHSVVDHPMPEERA	3.38
HVPNPPSGISFRSVVDHPMPEERA	3.42
HVPNPPSGISFFSVVDHPMPEERA	1.75
HVPNPPSGISFNSVVDHPMPEERA	3.98
HVPNPPSGISFVSVVDHPMPEERA	2.99
HVPNPPSGISFYSVVDHPMPEERA	2.56
HVPNPPSGISFESVVDHPMPEERA	4.57
HVPNPPSGISFASVVDHPMPEERA	3.44
HVPNPPSGISFMSVVDHPMPEERA	2.72
HVPNPPSGISFTSVVDHPMPEERA	3.78
HVPNPPSGISFCSVVDHPMPEERA	2.72
HVPNPPSGISFPSFVDHPMPEERA	3.57
HVPNPPSGISFPSCVDHPMPEERA	2.25

Variant	protein stability index
HVPNPPSGISFPSAVDHPMPEERA	3.13
HVPNPPSGISFPSDVDHPMPEERA	4.63
HVPNPPSGISFPSEVDHPMPEERA	4.36
HVPNPPSGISFPAVVDHPMPEERA	2.55
HVPNPPSGISFPFVVDHPMPEERA	1.89
HVPNPPSGISFPMVVDHPMPEERA	2.08
HVPNPPSGISFPDVVDHPMPEERA	3.94
HVPNPPSGISFPEVVDHPMPEERA	3.65
HVPNPPSGISFPWVVDHPMPEERA	2.14
HVPNPPSGISFPLVVDHPMPEERA	2.09
HVPNPPSGISFPYVVDHPMPEERA	1.94
HVPNPPSGISFPKVVDHPMPEERA	1.71
HVPNPPSGISFPRVVDHPMPEERA	2.59
HVPNPPSGISFPTVVDHPMPEERA	2.45
HVPNPPSGISFPPVVDHPMPEERA	2.73
HVPNPPSGISFPIVVDHPMPEERA	2.58
HVPNPPSGISFPVVVDHPMPEERA	2.43
HVPNPPSGISFPNVVDHPMPEERA	3.04
HVPNPPSGISFPQVVDHPMPEERA	2.71
HVPNPPSGISFPHVVDHPMPEERA	2.33
HVPNPPSGISFPCVVDHPMPEERA	2.45
HVPNPPSGISFPGVVDHPMPEERA	2.81
